# Assay results from article PMC4434323.
# Experiments:
# [1] = molecular target: T1, ceh-51 (Y80D3A.3) (Caenorhabditis elegans) (UniProt Q9U1R1)
# T1 sequence: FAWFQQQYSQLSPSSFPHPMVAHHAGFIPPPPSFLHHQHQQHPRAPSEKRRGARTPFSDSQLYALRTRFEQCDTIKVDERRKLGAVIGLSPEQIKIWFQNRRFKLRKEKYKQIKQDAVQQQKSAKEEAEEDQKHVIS
# [2] = molecular target: T2, eyg-1 (Y53C12C.1) (Caenorhabditis elegans) (UniProt O01996)
# T2 sequence: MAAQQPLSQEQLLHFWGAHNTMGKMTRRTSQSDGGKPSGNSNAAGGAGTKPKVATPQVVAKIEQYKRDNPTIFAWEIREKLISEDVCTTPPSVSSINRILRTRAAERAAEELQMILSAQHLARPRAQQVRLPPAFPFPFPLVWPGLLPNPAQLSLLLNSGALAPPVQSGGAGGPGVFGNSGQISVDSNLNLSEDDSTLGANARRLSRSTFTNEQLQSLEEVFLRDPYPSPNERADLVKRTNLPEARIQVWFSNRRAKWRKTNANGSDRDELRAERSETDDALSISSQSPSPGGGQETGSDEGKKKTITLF
# [3] = molecular target: T3, ceh-90 (R03E1.4) (Caenorhabditis elegans) (UniProt Q69YW8)
# T3 sequence: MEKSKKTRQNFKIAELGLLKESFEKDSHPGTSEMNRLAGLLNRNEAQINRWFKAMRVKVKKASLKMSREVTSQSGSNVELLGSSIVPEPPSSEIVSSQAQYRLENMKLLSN
# [4] = molecular target: ceh-36 (C37E2.4) (Caenorhabditis elegans) (UniProt Q93352)
# [5] = system: ceh-53 (C09G12.1) (Caenorhabditis elegans)
# [6] = molecular target: ceh-37 (C37E2.5) (Caenorhabditis elegans) (UniProt Q93356)
# [7] = molecular target: T4, ceh-23 (ZK652.5) (Caenorhabditis elegans) (UniProt P34663)
# T4 sequence: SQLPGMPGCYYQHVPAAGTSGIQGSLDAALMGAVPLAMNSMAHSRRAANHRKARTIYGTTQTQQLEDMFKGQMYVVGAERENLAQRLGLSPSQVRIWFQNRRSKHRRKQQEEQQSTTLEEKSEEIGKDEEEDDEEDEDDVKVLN
# [8] = molecular target: T5, C07E3.6 (C07E3.6) (Caenorhabditis elegans) (UniProt Q17792)
# T5 sequence: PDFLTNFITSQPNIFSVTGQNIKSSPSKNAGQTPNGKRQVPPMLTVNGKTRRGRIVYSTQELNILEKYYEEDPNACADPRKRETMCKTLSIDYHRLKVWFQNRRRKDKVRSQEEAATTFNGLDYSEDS
# [9] = molecular target: T6, ceh-34 (C10G8.6) (Caenorhabditis elegans) (UniProt Q94165)
# T6 sequence: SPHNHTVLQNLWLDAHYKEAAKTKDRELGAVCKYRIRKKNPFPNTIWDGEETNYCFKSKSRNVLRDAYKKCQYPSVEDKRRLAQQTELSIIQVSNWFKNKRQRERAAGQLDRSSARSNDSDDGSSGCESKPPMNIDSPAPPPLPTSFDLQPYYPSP
# [10] = molecular target: T7, end-1 (F58E10.2) (Caenorhabditis elegans) (UniProt G5EDN4)
# T7 sequence: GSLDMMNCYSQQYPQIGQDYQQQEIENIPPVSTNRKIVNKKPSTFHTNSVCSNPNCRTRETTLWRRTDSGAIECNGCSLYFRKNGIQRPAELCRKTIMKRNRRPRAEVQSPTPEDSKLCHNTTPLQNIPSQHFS
# Sequence of ceh-37 (C37E2.5) (Caenorhabditis elegans) (Q93356 1-148): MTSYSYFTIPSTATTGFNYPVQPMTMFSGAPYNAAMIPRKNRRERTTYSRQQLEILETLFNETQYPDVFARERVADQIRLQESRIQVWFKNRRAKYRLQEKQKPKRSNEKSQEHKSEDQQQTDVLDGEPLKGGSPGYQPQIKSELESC
# Sequence of ceh-36 (C37E2.4) (Caenorhabditis elegans) (Q93352 6-165): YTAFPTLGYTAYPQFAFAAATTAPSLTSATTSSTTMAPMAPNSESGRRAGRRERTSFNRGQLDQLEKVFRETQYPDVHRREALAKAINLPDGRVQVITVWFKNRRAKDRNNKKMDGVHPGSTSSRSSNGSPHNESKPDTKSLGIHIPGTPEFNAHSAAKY
# Sequence of ceh-53 (C09G12.1) (Caenorhabditis elegans) (chain, as listed by the source): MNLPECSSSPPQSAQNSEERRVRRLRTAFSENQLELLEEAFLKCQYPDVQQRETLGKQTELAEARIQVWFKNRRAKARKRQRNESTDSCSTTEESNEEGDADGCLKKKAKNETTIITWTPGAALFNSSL
sequence,measurement,setting,value
GTAATTAC (double strand) [8-mer GTAATTAC],binding signal (PBM E-score (-0.5 to 0.5)),[1],0.478
same,binding signal (PBM E-score (-0.5 to 0.5)),[2],0.482
ATTAAAAC (double strand) [8-mer ATTAAAAC],binding signal (PBM E-score (-0.5 to 0.5)),[3],0.487
AGGATTAA (double strand) [8-mer AGGATTAA],binding signal (PBM E-score (-0.5 to 0.5)),[4],0.492
same,binding signal (PBM E-score (-0.5 to 0.5)),[5],0.494
same,binding signal (PBM E-score (-0.5 to 0.5)),[6],0.491
GGGTTTAA (double strand) [8-mer GGGTTTAA],binding signal (PBM E-score (-0.5 to 0.5)),[3],0.487
ATTAATGA (double strand) [8-mer ATTAATGA],binding signal (PBM E-score (-0.5 to 0.5)),[1],0.469
GGTAATTA (double strand) [8-mer GGTAATTA],binding signal (PBM E-score (-0.5 to 0.5)),[7],0.494
same,binding signal (PBM E-score (-0.5 to 0.5)),[8],0.497
ATGCGCAT (double strand) [8-mer ATGCGCAT],binding signal (PBM E-score (-0.5 to 0.5)),[2],0.475
CCAATTAA (double strand) [8-mer CCAATTAA],binding signal (PBM E-score (-0.5 to 0.5)),[2],0.479
GCAATTAA (double strand) [8-mer GCAATTAA],binding signal (PBM E-score (-0.5 to 0.5)),[1],0.473
GGGGATTA (double strand) [8-mer GGGGATTA],binding signal (PBM E-score (-0.5 to 0.5)),[4],0.495
same,binding signal (PBM E-score (-0.5 to 0.5)),[5],0.497
same,binding signal (PBM E-score (-0.5 to 0.5)),[6],0.494
ACTAATCC (double strand) [8-mer ACTAATCC],binding signal (PBM E-score (-0.5 to 0.5)),[4],0.49
same,binding signal (PBM E-score (-0.5 to 0.5)),[5],0.497
GGGATTAA (double strand) [8-mer GGGATTAA],binding signal (PBM E-score (-0.5 to 0.5)),[4],0.494
same,binding signal (PBM E-score (-0.5 to 0.5)),[5],0.496
same,binding signal (PBM E-score (-0.5 to 0.5)),[6],0.493
ACTAAAAC (double strand) [8-mer ACTAAAAC],binding signal (PBM E-score (-0.5 to 0.5)),[3],0.487
CTAATTAA (double strand) [8-mer CTAATTAA],binding signal (PBM E-score (-0.5 to 0.5)),[7],0.498
same,binding signal (PBM E-score (-0.5 to 0.5)),[2],0.489
same,binding signal (PBM E-score (-0.5 to 0.5)),[8],0.498
ATTAATTA (double strand) [8-mer ATTAATTA],binding signal (PBM E-score (-0.5 to 0.5)),[1],0.474
same,binding signal (PBM E-score (-0.5 to 0.5)),[7],0.495
same,binding signal (PBM E-score (-0.5 to 0.5)),[8],0.495
GGTTTTAA (double strand) [8-mer GGTTTTAA],binding signal (PBM E-score (-0.5 to 0.5)),[3],0.498
TAATCCTA (double strand) [8-mer TAATCCTA],binding signal (PBM E-score (-0.5 to 0.5)),[4],0.492
AGTTTTAG (double strand) [8-mer AGTTTTAG],binding signal (PBM E-score (-0.5 to 0.5)),[3],0.486
ATATAATA (double strand) [8-mer ATATAATA],binding signal (PBM E-score (-0.5 to 0.5)),[1],0.472
GCTATTAA (double strand) [8-mer GCTATTAA],binding signal (PBM E-score (-0.5 to 0.5)),[1],0.467
GCTAATCC (double strand) [8-mer GCTAATCC],binding signal (PBM E-score (-0.5 to 0.5)),[4],0.493
same,binding signal (PBM E-score (-0.5 to 0.5)),[5],0.497
same,binding signal (PBM E-score (-0.5 to 0.5)),[6],0.49
AGGGATTA (double strand) [8-mer AGGGATTA],binding signal (PBM E-score (-0.5 to 0.5)),[6],0.487
CTAATCCC (double strand) [8-mer CTAATCCC],binding signal (PBM E-score (-0.5 to 0.5)),[4],0.49
same,binding signal (PBM E-score (-0.5 to 0.5)),[5],0.496
CTTAATTA (double strand) [8-mer CTTAATTA],binding signal (PBM E-score (-0.5 to 0.5)),[7],0.494
same,binding signal (PBM E-score (-0.5 to 0.5)),[2],0.482
same,binding signal (PBM E-score (-0.5 to 0.5)),[8],0.497
GGGTTTTA (double strand) [8-mer GGGTTTTA],binding signal (PBM E-score (-0.5 to 0.5)),[3],0.498
CTTAAAAC (double strand) [8-mer CTTAAAAC],binding signal (PBM E-score (-0.5 to 0.5)),[3],0.494
ATAAAACC (double strand) [8-mer ATAAAACC],binding signal (PBM E-score (-0.5 to 0.5)),[3],0.495
AGTTTTAA (double strand) [8-mer AGTTTTAA],binding signal (PBM E-score (-0.5 to 0.5)),[3],0.492
TAATCCGA (double strand) [8-mer TAATCCGA],binding signal (PBM E-score (-0.5 to 0.5)),[6],0.489
ATAATTAA (double strand) [8-mer ATAATTAA],binding signal (PBM E-score (-0.5 to 0.5)),[7],0.493
GTTAAAAC (double strand) [8-mer GTTAAAAC],binding signal (PBM E-score (-0.5 to 0.5)),[3],0.492
CTAATTAG (double strand) [8-mer CTAATTAG],binding signal (PBM E-score (-0.5 to 0.5)),[7],0.495
same,binding signal (PBM E-score (-0.5 to 0.5)),[2],0.473
same,binding signal (PBM E-score (-0.5 to 0.5)),[8],0.497
GGTTTTTA (double strand) [8-mer GGTTTTTA],binding signal (PBM E-score (-0.5 to 0.5)),[3],0.485
ATTAATAA (double strand) [8-mer ATTAATAA],binding signal (PBM E-score (-0.5 to 0.5)),[1],0.474
CTTAATCC (double strand) [8-mer CTTAATCC],binding signal (PBM E-score (-0.5 to 0.5)),[4],0.489
same,binding signal (PBM E-score (-0.5 to 0.5)),[5],0.494
CAATTAAC (double strand) [8-mer CAATTAAC],binding signal (PBM E-score (-0.5 to 0.5)),[2],0.476
same,binding signal (PBM E-score (-0.5 to 0.5)),[8],0.495
ACGGATTA (double strand) [8-mer ACGGATTA],binding signal (PBM E-score (-0.5 to 0.5)),[5],0.494
same,binding signal (PBM E-score (-0.5 to 0.5)),[6],0.487
ATTAATAG (double strand) [8-mer ATTAATAG],binding signal (PBM E-score (-0.5 to 0.5)),[1],0.478
TAAAACCA (double strand) [8-mer TAAAACCA],binding signal (PBM E-score (-0.5 to 0.5)),[3],0.488
GTAATTAA (double strand) [8-mer GTAATTAA],binding signal (PBM E-score (-0.5 to 0.5)),[7],0.492
same,binding signal (PBM E-score (-0.5 to 0.5)),[8],0.497
AAGGATTA (double strand) [8-mer AAGGATTA],binding signal (PBM E-score (-0.5 to 0.5)),[4],0.492
same,binding signal (PBM E-score (-0.5 to 0.5)),[5],0.495
same,binding signal (PBM E-score (-0.5 to 0.5)),[6],0.493
ATCAATTA (double strand) [8-mer ATCAATTA],binding signal (PBM E-score (-0.5 to 0.5)),[2],0.475
TAATTAAA (double strand) [8-mer TAATTAAA],binding signal (PBM E-score (-0.5 to 0.5)),[7],0.493
TAATTACA (double strand) [8-mer TAATTACA],binding signal (PBM E-score (-0.5 to 0.5)),[1],0.467
CGGATTAA (double strand) [8-mer CGGATTAA],binding signal (PBM E-score (-0.5 to 0.5)),[4],0.489
same,binding signal (PBM E-score (-0.5 to 0.5)),[5],0.494
same,binding signal (PBM E-score (-0.5 to 0.5)),[6],0.492
AGGATTAG (double strand) [8-mer AGGATTAG],binding signal (PBM E-score (-0.5 to 0.5)),[4],0.492
same,binding signal (PBM E-score (-0.5 to 0.5)),[5],0.496
CTAAAACC (double strand) [8-mer CTAAAACC],binding signal (PBM E-score (-0.5 to 0.5)),[3],0.493
AGGTTTTA (double strand) [8-mer AGGTTTTA],binding signal (PBM E-score (-0.5 to 0.5)),[3],0.496
ATTAATTG (double strand) [8-mer ATTAATTG],binding signal (PBM E-score (-0.5 to 0.5)),[1],0.472
same,binding signal (PBM E-score (-0.5 to 0.5)),[2],0.478
GCGGATTA (double strand) [8-mer GCGGATTA],binding signal (PBM E-score (-0.5 to 0.5)),[4],0.491
same,binding signal (PBM E-score (-0.5 to 0.5)),[5],0.494
same,binding signal (PBM E-score (-0.5 to 0.5)),[6],0.491
GGATTAAC (double strand) [8-mer GGATTAAC],binding signal (PBM E-score (-0.5 to 0.5)),[4],0.49
same,binding signal (PBM E-score (-0.5 to 0.5)),[5],0.495
same,binding signal (PBM E-score (-0.5 to 0.5)),[6],0.492
TATTAATA (double strand) [8-mer TATTAATA],binding signal (PBM E-score (-0.5 to 0.5)),[1],0.483
TCAATTAA (double strand) [8-mer TCAATTAA],binding signal (PBM E-score (-0.5 to 0.5)),[1],0.467
same,binding signal (PBM E-score (-0.5 to 0.5)),[2],0.48
ATAATCCG (double strand) [8-mer ATAATCCG],binding signal (PBM E-score (-0.5 to 0.5)),[6],0.49
GCACTTAA (double strand) [8-mer GCACTTAA],binding signal (PBM E-score (-0.5 to 0.5)),[1],0.469
GATAATCC (double strand) [8-mer GATAATCC],binding signal (PBM E-score (-0.5 to 0.5)),[6],0.491
ATTAAGTG (double strand) [8-mer ATTAAGTG],binding signal (PBM E-score (-0.5 to 0.5)),[1],0.472
GGATTAAA (double strand) [8-mer GGATTAAA],binding signal (PBM E-score (-0.5 to 0.5)),[4],0.49
same,binding signal (PBM E-score (-0.5 to 0.5)),[6],0.488
AAGTTTTA (double strand) [8-mer AAGTTTTA],binding signal (PBM E-score (-0.5 to 0.5)),[3],0.492
ATGATATC (double strand) [8-mer ATGATATC],binding signal (PBM E-score (-0.5 to 0.5)),[9],0.476
same,binding signal (PBM E-score (-0.5 to 0.5)),[10],0.484
CCTAATTA (double strand) [8-mer CCTAATTA],binding signal (PBM E-score (-0.5 to 0.5)),[7],0.495
same,binding signal (PBM E-score (-0.5 to 0.5)),[8],0.496
ATTAATCC (double strand) [8-mer ATTAATCC],binding signal (PBM E-score (-0.5 to 0.5)),[4],0.494
same,binding signal (PBM E-score (-0.5 to 0.5)),[5],0.495
same,binding signal (PBM E-score (-0.5 to 0.5)),[6],0.492
